According to PMC4066849 (Structure (London, England : 1993), 2014):
Numbering of substitutions follows the chain as printed. In names and notes the source's numbering stands.

B1: MiD51Δ1–133 (domain or fragment, mouse, UniProt Q8BGV8 134-463, looked up)
chain: SLQEKLLSYYRNRAAIPAGEQARAKQAAVDICAELRSFLRAKLPDMPLRDMYLSGSLYDDLQVVTADHIQLIVPLVLEQNLWSCIPGEDTIMNVPGFFLVRRENPEYFPRGSSYWDRCVVGGYLSPKTVADTFEKVVAGSINWPAIGSLLDYVIRPAPPPEALTLEVQYEKDKHLVIDFLPSVTLGDTVLVARPHRLAQYDNLWRLSLRPAETARLRALDQADSGCRSLCLKILKAICKSTPALGHLTASQLTNVILHLAQEEADWSPDMLADRFLQALRGLISYLEAGVLPSALNPKVNLFAELTPQEIDELGYTLYCSLSEPEVLLQT
B2: MiD51 H201A mutant (MiD51Δ1–133 H201A) (domain or fragment, mouse, UniProt Q8BGV8 134-463, looked up)
chain: B1 chain with H68A

Target: the molecule itself
Assay: crystal structure

Row | Protein | stoichiometry N
1 | B1 | 2
2 | B2 | 2
